Assay in all cases: xCELLigence real-time killing assay (impedance)
Format in all cases: cell-based, human

Assay [1] concerns T47D wild-type breast cancer cells. The following applies: for concentration showing potent / effective / comparable killing: after 120 hours; for ADC concentration at which essentially all the tumor cells were killed: readout 120 hours post ADC addition, DAR: MNC2-MMAE 4.1, MN20A10-MMAE 5.8, MNC2-MMAF 3.7, MN20A10-MMAF 3.8; for concentration at which target cells are effectively killed: within a 40 hour timeframe. The method, then:
FIGS. 49A-49J show traces from the real-time killing assays performed on an xCELLigence instrument. In this assay, impedance is measured in real-time. When the adherent cancer cells are killed and come off of the electrode surface, impedance (insulation) decreases. T47D wild-type breast cancer cells were plated onto multi-electrode-well plates at 5,000 cells per well and allowed to adhere and grow for 24 hours before the addition of ADCs. Either MNC2-MMAE, DAR 4.1, MN20A10-MMAE, DAR 5.8, MNC2-MMAF, DAR 3.7, MN20A10-MMAF, DAR 3.8, MNC2-Deruxtecan, DAR 7.2, or MN20A10-Deruxtecan, DAR 4.6, was then added to the cancer cells. […] Taxol and Triton are added as the positive killing control. […] Taxol and Triton are added as the positive killing control. […]
(§1) To assess real-time killing of target cancer cells including breast cancer cells (T47D), non-small cell lung cancer cells (NCI-H1975) and pancreatic cancer cells (HP AF II) assays were performed on an xCELLigence RTCA MP Instrument (Agilent). Target Cancer cells were seeded onto a multi-electrode well plate at a density of 5000 cells/well (100 μL of a 50,000 cells/mL stock) and incubated for 24 hr in a 37° C./5% CO2 incubator. mAb MNC2 ADCs or mAb MN20A10-ADCs were prepared as a 2× solution in corresponding growth media and 100 μL of each concentration was added to target cells. As a positive control (100% cell killing) cells were treated with either 1% triton or 1 μM Taxol instead of ADC. After 40-120 hours incubation in a 37° C./5% CO2 incubator cell killing was assessed. In this assay, impedance is measured in real-time. When the adherent cancer cells are killed and come off the electrode surface, impedance (insulation) decreases.
MNC2-ADCs and MN20A10-ADCs were also assayed for their ability to kill both low and high MUC1* expressing cells by monitoring killing in real-time using an xCELLigence instrument. In the xCelligence system, target cancer cells, which are adherent, are plated onto electrode array 96-well plates. Adherent cells insulate the electrode and increase the impedance. The number of adherent cancer cells is directly proportional to impedance. […] Therefore, increasing impedance reflects the growth of the cancer cells and decreasing impedance reflects the killing of the cancer cells.
Breast cancer cell line T47D-wt expresses MUC1* at low to low-medium levels. Pancreatic cancer cell line HPAF II-wt expresses even lower levels of MUC1* and lung cancer cell line NCI-H1975 express still lower levels of MUC1*.

The test system of assay [2] is HPAF II wild-type (WT) pancreatic cancer cells. The following applies: for ADC concentration at which essentially all the tumor cells were killed: readout 120 hours post ADC addition. The method, then:
In this assay, impedance is measured in real-time. When the adherent cancer cells are killed and come off of the electrode surface, impedance (insulation) decreases. HPAF II wild-type (WT) pancreatic cancer cells were plated onto multi-electrode-well plates at 5,000 cells per well and allowed to adhere and grow for 24 hours before the addition of ADCs. Either MNC2-MMAE, DAR 4.1, MN20A10-MMAE, DAR 5.8, MNC2-MMAF, DAR 3.7, MN20A10-MMAF, DAR 3.8, MNC2-Deruxtecan, DAR 7.2, or MN20A10-Deruxtecan, DAR 4.6, was then added to the cancer cells. […] Taxol and Triton are added as the positive killing control. […] Taxol and Triton are added as the positive killing control. […] As indicated, essentially all the pancreatic tumor cells were killed at an MNC2-MMAE concentration of 56 nM. […] As indicated, essentially all the tumor cells were killed at an MNC2-MMAF concentration of 56 nM. […] Significant killing is measured at 120 hours at a concentration of about 56 nM. […] As indicated, essentially all the tumor cells were killed at an MN20A10-MMAE concentration of 56 nM-19 nM. […] As indicated, essentially all the tumor cells were killed at an MN20A10-MMAF concentration of 56 nM.
as §1, with “When the adherent cancer cells are killed and come off the electrode surface, impedance (insulation) decreases.” left out

The test system of assay [3] is HPAF II-MUC1* pancreatic cancer cells. The following applies: readout 120 hours post ADC addition. The method, then: FIGS. 53A-53I show traces from the real-time killing assays performed on an xCELLigence instrument. In this assay, impedance is measured in real-time. When the adherent cancer cells are killed and come off of the electrode surface, impedance (insulation) decreases. HPAF II-MUC1* pancreatic cancer cells, engineered to express more MUC1*, were plated onto multi-electrode-well plates at 5,000 cells per well and allowed to adhere and grow for 24 hours before the addition of ADCs. Either MNC2-MMAE, DAR 4.1, MN20A10-MMAE, DAR 5.8, MNC2-MMAF, DAR 3.7, MN20A10-MMAF, DAR 3.8, MNC2-Deruxtecan, DAR 7.2, or MN20A10-Deruxtecan, DAR 4.6, was then added to the cancer cells. […] Taxol and Triton are added as the positive killing control. […] Taxol and Triton are added as the positive killing control. […] As indicated, essentially all the pancreatic tumor cells were killed at an MNC2-MMAE concentration of 56 nM. […] As indicated, essentially all the tumor cells were killed at an MNC2-MMAF concentration of 56 nM. […] As indicated, essentially all the tumor cells were killed at an MN20A10-MMAE concentration of 56 nM-19 nM. […] As indicated, essentially all the tumor cells were killed at an MN20A10-MMAF concentration of 56 nM.
as §1, with “When the adherent cancer cells are killed and come off the electrode surface, impedance (insulation) decreases.” left out

B1: MN20A10-MMAF (conjugate)
VH: QVQLVESGGGLVKPGGSLRLSCAASGFTFSTYAMSWIRQAPGKGLEWVASIGRAGSTYYSDSVKGRFTISRDNAKNSLYLQMNSLRAEDTAVYYCARGPIYNDYDEFAYWGQGTLVTVSS
VL: EIVLTQSPATLSLSPGERATLSCKSSQSVLYSSNQKNYLAWYQQKPGQAPRLLIYWASTRESGIPARFSGSGSGTDFTLTISSLEPEDFAVYYCHQYLSSLTFGGGTKVEIKR
Consider B1, for which, in assay [1], the “concentration showing potent / effective / comparable killing” value worked out at 167 nM, the “ADC concentration at which essentially all the tumor cells were killed” value is 167 nM and the “concentration at which target cells are effectively killed” value came to 500 nM. For the same molecule, the “ADC concentration at which essentially all the tumor cells were killed” value in assay [2] is 56 nM. Besides, the “ADC concentration at which essentially all (nearly all, near total) tumor cells were killed” value in assay [3] was found to be 56 nM.

B2: MNC2-MMAF (conjugate)
VH: EVQLVESGGGLVKPGGSLRLSCAASGFTFSGYAMSWVRQAPGKGLEWVSTISSGGTYIYYPDSVKGRFTISRDNAKNSLYLQMNSLRAEDTAVYYCARLGGDNYYEYFDVWGKGTTVTVSS
VL: DIVLTQSPASLAVSPGQRATITCRASKSVSTSGYSYMHWYQQKPGQPPKLLIYLASNLESGVPARFSGSGSGTDFTLTINPVEANDTANYYCQHSRELPFTFGGGTKVEIKRT
With B2, in assay [1], the “concentration showing potent / effective / comparable killing” value was determined as 167 nM, the “ADC concentration at which essentially all the tumor cells were killed” value came to 167 nM and the “concentration at which target cells are effectively killed” value was 500 nM. The “ADC concentration at which essentially all the tumor cells were killed” value in assay [2] is given as 56 nM. For the same molecule, the “ADC concentration at which essentially all (nearly all, near total) tumor cells were killed” value in assay [3] is given as 56 nM.

B3: MNC2-Deruxtecan (conjugate)
VH: B2 VH
VL: B2 VL
As to B3, the “concentration showing potent / effective / comparable killing” value in assay [1] is 167 nM. For the same molecule, the “concentration reaching approximately the same level of killing as MNC2-MMAE or -MMAF” value in assay [1] (by 100 hours, DAR 7.2) is 167 nM. In addition, the “concentration with significant killing” value in assay [2] (at 120 hours) is “about 56 nM”. Further, the “ADC concentration at which essentially all (nearly all, near total) tumor cells were killed” value in assay [3] is listed as 167 nM.

The values above are taken from patent US12491259B2, “Anti-variable MUC1* antibodies and uses thereof” (Minerva Biotechnologies Corporation, priority 2022, dated 2025).
